Reference: the supplement of paper PMC10567573

B1: TOR1AIP2 (parent)
chain: SPGHSSAGQEGEDTLRRRLLAPEA
B2: FAM189A2 (parent)
chain: GSEAAVIPLDLGCTQVTQDGDIPN

Variants of: B1
Experiment: protein stability index of a GFP-peptide fusion (GPS, HEK-293T) (PSI 1-6); higher = more stable
Details: c terminus: a fixed tail appended
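Further: lentivirally expressed fusions sorted by FACS into six bins by GFP to DsRed ratio, PSI derived from sequencing read proportions per bin multiplied by bin number.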

| Variant | protein stability index |
| --- | --- |
| SDGHSSAGQEGEDTLRRRLLAPEA [P2D] | 4.86 |
| SHGHSSAGQEGEDTLRRRLLAPEA [P2H] | 4.2 |
| SQGHSSAGQEGEDTLRRRLLAPEA [P2Q] | 4.47 |
| SLGHSSAGQEGEDTLRRRLLAPEA [P2L] | 2.43 |
| STGHSSAGQEGEDTLRRRLLAPEA [P2T] | 3.23 |
| SVGHSSAGQEGEDTLRRRLLAPEA [P2V] | 2.75 |
| SRGHSSAGQEGEDTLRRRLLAPEA [P2R] | 4.47 |
| SWGHSSAGQEGEDTLRRRLLAPEA [P2W] | 2.65 |
| SAGHSSAGQEGEDTLRRRLLAPEA [P2A] | 2.22 |
| SGGHSSAGQEGEDTLRRRLLAPEA [P2G] | 4.22 |
| SMGHSSAGQEGEDTLRRRLLAPEA [P2M] | 3.75 |
| SPGHSSAGWEGEDTLRRRLLAPEA [Q9W] | 3.04 |
| SPGHSSAGREGEDTLRRRLLAPEA [Q9R] | 3.5 |
| SPGHSSAGTEGEDTLRRRLLAPEA [Q9T] | 3.96 |
| SPGHSSAGEEGEDTLRRRLLAPEA [Q9E] | 4.31 |
| SPGHSSAGLEGEDTLRRRLLAPEA [Q9L] | 3.58 |
| SPGHSSAGFEGEDTLRRRLLAPEA [Q9F] | 4.11 |
| SPGHSSAGNEGEDTLRRRLLAPEA [Q9N] | 4.05 |
| SPGHSSAGHEGEDTLRRRLLAPEA [Q9H] | 3.83 |
| SPGHSSAGCEGEDTLRRRLLAPEA [Q9C] | 3.22 |
| SPGHSSAGGEGEDTLRRRLLAPEA [Q9G] | 2.94 |
| SPGHSSAGPEGEDTLRRRLLAPEA [Q9P] | 4.53 |

| Variant | protein stability index |
| --- | --- |
| SPGHSSAGMEGEDTLRRRLLAPEA [Q9M] | 3.43 |
| SPGHSSAGAEGEDTLRRRLLAPEA [Q9A] | 4.35 |
| SPGHSSAGKEGEDTLRRRLLAPEA [Q9K] | 4.02 |
| SPGHSSAGIEGEDTLRRRLLAPEA [Q9I] | 4.08 |
| SPGHSSAGVEGEDTLRRRLLAPEA [Q9V] | 3.98 |
| SPGHSSAGDEGEDTLRRRLLAPEA [Q9D] | 3.84 |
| SPGHSSAGSEGEDTLRRRLLAPEA [Q9S] | 4.24 |
| SPGHSSAGYEGEDTLRRRLLAPEA [Q9Y] | 3.68 |
| SPSHSSAGQEGEDTLRRRLLAPEA [G3S] | 4.02 |
| SPYHSSAGQEGEDTLRRRLLAPEA [G3Y] | 3.83 |
| SPAHSSAGQEGEDTLRRRLLAPEA [G3A] | 3.74 |
| SPLHSSAGQEGEDTLRRRLLAPEA [G3L] | 3.78 |
| SPKHSSAGQEGEDTLRRRLLAPEA [G3K] | 3.67 |
| SPDHSSAGQEGEDTLRRRLLAPEA [G3D] | 4.73 |
| SPHHSSAGQEGEDTLRRRLLAPEA [G3H] | 4.21 |
| SPRHSSAGQEGEDTLRRRLLAPEA [G3R] | 2.93 |
| SPTHSSAGQEGEDTLRRRLLAPEA [G3T] | 3.59 |
| SPPHSSAGQEGEDTLRRRLLAPEA [G3P] | 4.69 |
| SPMHSSAGQEGEDTLRRRLLAPEA [G3M] | 4.48 |
| SPVHSSAGQEGEDTLRRRLLAPEA [G3V] | 3.24 |
| SPNHSSAGQEGEDTLRRRLLAPEA [G3N] | 4.16 |
| SPEHSSAGQEGEDTLRRRLLAPEA [G3E] | 4.65 |

| Variant | protein stability index |
| --- | --- |
| SPCHSSAGQEGEDTLRRRLLAPEA [G3C] | 3.32 |
| SPIHSSAGQEGEDTLRRRLLAPEA [G3I] | 3.51 |
| SPQHSSAGQEGEDTLRRRLLAPEA [G3Q] | 4.46 |
| SPWHSSAGQEGEDTLRRRLLAPEA [G3W] | 4.3 |
| SPFHSSAGQEGEDTLRRRLLAPEA [G3F] | 3.85 |
| SPGHSDAGQEGEDTLRRRLLAPEA [S6D] | 4.48 |
| SPGHSLAGQEGEDTLRRRLLAPEA [S6L] | 4.18 |
| SPGHSEAGQEGEDTLRRRLLAPEA [S6E] | 4.51 |
| SPGHSPAGQEGEDTLRRRLLAPEA [S6P] | 4.26 |
| SPGHSFAGQEGEDTLRRRLLAPEA [S6F] | 2.94 |
| SPGHSCAGQEGEDTLRRRLLAPEA [S6C] | 3.9 |
| SPGHSWAGQEGEDTLRRRLLAPEA [S6W] | 3.97 |
| SPGHSIAGQEGEDTLRRRLLAPEA [S6I] | 3.42 |
| SPGHSHAGQEGEDTLRRRLLAPEA [S6H] | 4.23 |
| SPGHSMAGQEGEDTLRRRLLAPEA [S6M] | 4.02 |
| SPGHSYAGQEGEDTLRRRLLAPEA [S6Y] | 3.73 |
| SPGHSQAGQEGEDTLRRRLLAPEA [S6Q] | 4.65 |
| SPGHSTAGQEGEDTLRRRLLAPEA [S6T] | 4.36 |
| SPGHSNAGQEGEDTLRRRLLAPEA [S6N] | 3.75 |
| SPGHSAAGQEGEDTLRRRLLAPEA [S6A] | 4.36 |
| SPGHSKAGQEGEDTLRRRLLAPEA [S6K] | 3.97 |
| SPGHSGAGQEGEDTLRRRLLAPEA [S6G] | 3.66 |

| Variant | protein stability index |
| --- | --- |
| SPGHSVAGQEGEDTLRRRLLAPEA [S6V] | 3.24 |
| SPGHSRAGQEGEDTLRRRLLAPEA [S6R] | 4.46 |
| IPGHSSAGQEGEDTLRRRLLAPEA [S1I] | 4.92 |
| FPGHSSAGQEGEDTLRRRLLAPEA [S1F] | 2.59 |
| KPGHSSAGQEGEDTLRRRLLAPEA [S1K] | 4.47 |
| VPGHSSAGQEGEDTLRRRLLAPEA [S1V] | 4.59 |
| YPGHSSAGQEGEDTLRRRLLAPEA [S1Y] | 2.21 |
| APGHSSAGQEGEDTLRRRLLAPEA [S1A] | 5.07 |
| DPGHSSAGQEGEDTLRRRLLAPEA [S1D] | 5.21 |
| PPGHSSAGQEGEDTLRRRLLAPEA [S1P] | 5.3 |
| EPGHSSAGQEGEDTLRRRLLAPEA [S1E] | 5.47 |
| LPGHSSAGQEGEDTLRRRLLAPEA [S1L] | 4.91 |
| HPGHSSAGQEGEDTLRRRLLAPEA [S1H] | 4.57 |
| WPGHSSAGQEGEDTLRRRLLAPEA [S1W] | 4.53 |
| QPGHSSAGQEGEDTLRRRLLAPEA [S1Q] | 4.02 |
| MPGHSSAGQEGEDTLRRRLLAPEA [S1M] | 4.49 |
| NPGHSSAGQEGEDTLRRRLLAPEA [S1N] | 3.13 |
| GPGHSSAGQEGEDTLRRRLLAPEA [S1G] | 3.81 |
| TPGHSSAGQEGEDTLRRRLLAPEA [S1T] | 4.88 |
| RPGHSSAGQEGEDTLRRRLLAPEA [S1R] | 4.05 |
| CPGHSSAGQEGEDTLRRRLLAPEA [S1C] | 3.46 |

Variants of: B2
Experiment: as above
Details: c terminus: a fixed tail appended

| Variant | protein stability index |
| --- | --- |
| GSEAAVIPLDLGCTQVTQDGDIPR [N24R] | 4.91 |
| GSEAAVIPLDLGCTQVTQDGDIPQ [N24Q] | 5.3 |
| GSEAAVIPLDLGCTQVTQDGDIPW [N24W] | 4.39 |
| GSEAAVIPLDLGCTQVTQDGDIPS [N24S] | 5.51 |
| GSEAAVIPLDLGCTQVTQDGDIPT [N24T] | 5.54 |
| GSEAAVIPLDLGCTQVTQDGDIPY [N24Y] | 4.91 |
| GSEAAVIPLDLGCTQVTQDGDIPV [N24V] | 5.17 |
